B1: 1245_P01_E07 scFv (scFv)
scFv: QVQLVESGGGLVKPGGSLRLSCAASGFTFSDYYMSWIRQAPGKGLEWVSYISSSGSTIYYADSVKGRFTISRDNAKNSLYLQMNSLRAEDTAVYYCARVDYADAFDIWGQGTLVTVSSGGGGSGGGGSGGGASDIQMTQSPSSLSASVGDRVTIACRAGQSIGTYLNWYQQKPGKAPKLLIYVASSLQSGVPSRFSGSGSGTEFTLTISSLQPEDFATYYCQQSYSTLLTFGRGTKVEIK
B2: 1245_P01_G09 scFv (scFv)
scFv: QVQLQQSGPGLVKPSQTLSLTCAISGDSVSSNSAAWNWIRQSPSRGLEWLGRTYYGSKWYNEYALSVKSRIIINPDTSKNQFSLQLNSVTPEDTAVYYCARDYYYSMDVWGQGTLVTVSSGGGGSGGGGSGGGASDIVMTQSPSTLSASIGDRVTITCRAGQSISTWLAWYQQKPGKAPKLLIYDASSLESGVPLRFSGSGSGTEFTLAISSLQPDDFATYYCQQSYSTPVTFGQGTKVEIK
B3: 1251_P02_G10 scFv (scFv)
scFv: EVQLVESGGGLVQPGGSLRLSCAASGFTFSDYYMSWIRQAPGKGLEWVSYISSSGSTIYYADSVKGRFTISRDNAKNSLYLQMNSLRAEDTAVYYCARHSWNDAFDIWGRGTLVTVSSGGGGSGGGGSGGGASDIQMTQSPSSLSASVGDRVTITCRASQSISSHLNWYQQKPGKAPKLLIYAASSLQSGVPSRFSASGSGTDFTLTISSLQPEDFATYYCQQSYSTLLTFGGGTKVEIK
B4: 1252_P01_C08 scFv (scFv)
scFv: EVQLLESGGGLVQPGRSLRLSCAASGFTVSSNYMSWVRQAPGKGLEWVSVIYSGGSTYYADSVKGRFTISRDNSKNTLYLQMNSLRAEDTAVYYCASPIELGAFDIWGQGTLVTVSSGGGGSGGGGSGGGASSYELTQPPSVSVAPGKTARITCGGNNIGSQSVHWYQQKPGQAPMLVIYYDSDRPSGIPERFSGSNSGNTATLTISRVEAGDEADYYCQVWDSSSDHVVFGGGTKLTVL
B5: 1245_P02_G04 scFv (scFv)
scFv: QVQLQQSGPGLVKPSQTLSLTCAISGDSVSSKSAAWNWIRQSPSRGLEWLGRTYYRSKWSTDYAASVKSRITINPDTSKNQLSLQLNSVTPEDTAVYYCARTWSGYVDVWGQGTLVTVSSGGGGSGGGGSGGGASDIQMTQSPPALSASVGDRVTITCRASQDINDWLAWYQHKPGKAPKLLIYDASSLESGVPSRFSGSGSGTEFTLTISSLQPDDFATYYCQQSYSTPQVTFGQGTRLEIK
B6: 1251_P02_C05 scFv (scFv)
scFv: EVQLLESGGGLVQPGGSLRLSCAASGFTFSSYAMSWVRQAPGKGLEWVSAISGGGGTTYSSDSVKGRFTISRDNSKNTLYLQMNSLRAEDTAVYYCARDSGVAFDIWGQGTLVTVSSGGGGSGGGGSGGGASDIQMTQSPSFLSASVGDRVTITCRASQNIRTWLAWYQQKPGRAPKLLIYDASSLESGVPSRFSGSGSGTDFTLTISSLQPEDFATYYCQQFKRYPPTFGLGTKVEIK
B7: 1141_P01_E01 scFv (scFv)
scFv: QVQLVQSGAEVKKPGESLKISCKGSGYSFTSYWIGWVRQMPGKGLEWMGIIYPGDSDTRYSPSFQGQVTISADKSISTAYLQWSSLKASDTAMYYCARHQVDTRTADYWGQGTLVTVSSGGGGSGGGGSGGGASQSALTQPASVSGSPGQSVTISCTGTRSDVGGYNYVSWYQHHPGKAPKLMIYEVSNRPSGVSNRFSGSKSGNTASLTISGLQAEDEADYYCSSYTSTSTLVFGGGTKLTVL
B8: 1139_P01_E04 scFv (scFv)
scFv: QVQLQQSGPGLVKPSQTLSLTCAISGDSVSSNSAAWNWIRQSPSRGLEWLGRTYYRSKWYNDYAVSVRSRITINPDTSKNQFSLQLNSVTPEDTAVYYCARSWNDAFDIWGQGTTVTVSSGGGGSGGGGSGGGASDIVMTQSPSTLSASIGDRVTITCRAGQSISTWLAWYQQKPGKAPKLLIYDASSLESGVPLRFSGSGSGTDFTLTISSLQPEDFATYYCQQSYSTPLTFGGGTKVEIK
B9: 1245_P02_F07 scFv (scFv)
scFv: QVQLQQSGPGLVKPSQTLSLTCVISGDSVSSNSAAWNWIRQSPSRGLEWLGRTYYRSKWYNDYAVSVKSRITINPDTSKNQFSLQLNSVTPEDTAVYYCARDYYYSMDVWGQGTMVTVSSGGGGSGGGGSGGGASDIQMTQSPSTLSASVGDRVTITCRASQSISSWLAWYQQKPGKAPKLLIYDASSLESGVPLRFSGSGSGTEFTLTISSLQPDDFATYYCQQSHSHPPTFGPGTKVDIK

The binders below were run against L1 (DV1-GV4) (human) (assay: DELFIA affinity ranking, signal with 100 nM biotinylated L1).
Chain of L1 (DV1-GV4) (human) (chain, as listed by the source, chain 1 of 2): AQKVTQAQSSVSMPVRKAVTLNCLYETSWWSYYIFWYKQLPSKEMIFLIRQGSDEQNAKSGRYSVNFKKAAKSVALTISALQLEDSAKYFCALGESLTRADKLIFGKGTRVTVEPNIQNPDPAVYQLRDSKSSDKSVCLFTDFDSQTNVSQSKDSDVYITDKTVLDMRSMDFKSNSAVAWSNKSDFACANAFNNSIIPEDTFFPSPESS
Chain of L1 (DV1-GV4) (human) (chain, as listed by the source, chain 2 of 2): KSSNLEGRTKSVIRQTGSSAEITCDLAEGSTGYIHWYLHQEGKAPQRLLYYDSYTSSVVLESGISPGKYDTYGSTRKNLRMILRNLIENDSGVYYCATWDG
B1 showed a 100 nM L1 of 163000.
B2 gave a 100 nM L1 of 18400.
With B3 the 100 nM L1 was 17100.
In the case of B4, the 100 nM L1 is reported as 1980.
B5 gave a 100 nM L1 of 5900.
For B6, the 100 nM L1 was 65300.
Binder B7 has a 100 nM L1 of 137000.
B8 gave a 100 nM L1 of 23800.
B9 gave a 100 nM L1 of 10400.
